For assay [1], the target named is T1, BMPR-IA (BMP receptor type IA) (UniProt P36894 24-152, limits assumed).
T1 construct: Soluble receptor added to the PEP7-coated plate; also called BMPR-1A; BMP-specific receptor
The experiment in a line: ELISA: peptide coated on plate, BMPR-1A added, detected with anti-receptor antibody and HRP secondary, ABTS, absorbance at 595 nm. Here is the method: (§1) PEP7 ([…]) was added to an ELISA plate and incubated at 4° C. for 12 hours. After PEP7 was coated on the plate, BMPR-1A or BMPR-II ([…]) was added thereto and reacted at room temperature for 2 hours, to obtain a PEP7-BMP receptor complex. A primary antibody specific for a BMP receptor (0.5 mg BMPR-1A, BMPR-11) was added to the complex and reacted at room temperature for 1 hour. A secondary antibody (BMPR-1A- or BMPRII-Fc Ab-HRP) was then added to the resulting mixture and reacted at room temperature for 1 hour.
Background: ELISA stands for enzyme-linked immunosorbent assay.

For assay [2], the target named is T2, BMPR-II (BMP receptor type II) (UniProt Q13873 27-151, limits assumed).
T2 construct: Soluble receptor added to the PEP7-coated plate; also called BMPR-11; BMP-II
T2 sequence (looked up): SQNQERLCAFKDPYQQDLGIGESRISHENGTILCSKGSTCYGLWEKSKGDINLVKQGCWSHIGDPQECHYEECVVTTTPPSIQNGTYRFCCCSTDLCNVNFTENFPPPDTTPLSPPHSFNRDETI
The experiment in a line: ELISA: peptide coated on plate, BMPR-II added, detected with anti-receptor antibody and HRP secondary, ABTS, absorbance at 595 nm. As to the method: as §1

The values below come from US20120316118A1 (OSSTEMIMPLANT, published 2012).

T1 sequence (P36894 24-152 limits assumed): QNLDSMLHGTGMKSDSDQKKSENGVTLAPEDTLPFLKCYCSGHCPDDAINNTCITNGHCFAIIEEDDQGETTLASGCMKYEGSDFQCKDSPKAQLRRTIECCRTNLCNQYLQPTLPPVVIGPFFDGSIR

B1: PEP7 oligopeptide (SEQ ID NO:1) (peptide)
peptide: KIPKPSSVPTELSAISMLYL
notes: Synthetic peptide made by the Fmoc/tBu method, coated on the ELISA plate
Take B1: the “binding affinity relative to PEP 111 (ELISA absorbance)” value in assay [1] and in assay [2] was approximately 23 % higher than PEP 111 in each case.
